According to patent US20240270814A1 (published 2024):
Positions count from the first letter of the chain named. One block for each binder: values may come before it.

Tests used:
Test in all cases: activation reporter or marker
[1] = molecular target: T1, p53 R248W peptide on HLA-A*68:01 (human)
T1 peptide: SSCMGGMNWR

[2] = molecular target: T2, p53 wild type (Y220) peptide on HLA-DRB1*04:01 (human)
T2 peptide: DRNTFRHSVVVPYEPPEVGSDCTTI

[3] = molecular target: T3, p53 Y220C peptide on HLA-DRB1*04:01 (human)
T3 peptide: RNTFRHSVVVPCE

B1: 4266-TCR3 (TCR, V domains shown)
Valpha: GQNIDQPTEMTATEGAIVQINCTYQTSGFNGLFWYQQHAGEAPTFLSYNVLDGLEEKGRFSSFLSRSKGYSYLLLKELQMKDSASYLCAFYYGGSQGNLIFGKGTKLSVKP
Vbeta: GAGVSQSPRYKVAKRGQDVALRCDPISGHVSLFWYQQALGQGPEFLTYFQNEAQLDKSGLPSDRFFAERPEGSVSTLKIQRTQQEDSAVYLCASSFGSGSTDTQYFGPGTRLTVL
- binding result [1]: recognises

B4: 4259-F6-TCR (TCR, V domains shown)
Valpha: QKEVEQNSGPLSVPEGAIASLNCTYSDRGSQSFFWYRQYSGKSPELIMFIYSNGDKEDGRFTAQLNKASQYVSLLIRDSQPSDSATYLCAWNSGGSNYKLTFGKGTLLTVNP
Vbeta: NAGVTQTPKFRVLKTGQSMTLLCAQDMNHEYMYWYRQDPGMGLRLIHYSVGEGTTAKGEVPDGYNVSRLKKQNFLLGLESAAPSQTSVYFCASSYSQAWGQPQHFGDGTRLSIL
- binding result [2]: no recognition
- binding result [3]: recognises

The remaining lines, values ahead:

- binding result [1]: recognises
B2: 4266-TCR2 (TCR, V domains shown)
Valpha: GQNIDQPTEMTATEGAIVQINCTYQTSGFNGLFWYQQHAGEAPTFLSYNVLDGLEEKGRFSSFLSRSKGYSYLLLKELQMKDSASYLCAVYTGGFKTIFGAGTRLFVKA
Vbeta: EAGVAQSPRYKIIEKRQSVAFWCNPISGHATLYWYQQILGQGPKLLIQFQNNGVVDDSQLPKDRFSAERLKGVDSTLKIQPAKLEDSAVYLCASNLGGGSTDTQYFGPGTRLTVL

- binding result [1]: recognises
B3: 4266-TCR4 (TCR, V domains shown)
Valpha: B1 Valpha with F90V, Y92P
Vbeta: B2 Vbeta with N95S, G98T
